Laboratory results reported in PMC6444592, “Citrullination of HP1γ chromodomain affects association with chromatin” (Epigenetics & Chromatin, 2019).

How the values were obtained:
[1] = molecular target: T1, GST-HP1γR38/9K (full-length mouse HP1γ with R38 and R39 mutated to lysine) (mouse, UniProt P23198 1-183, R38/9K | R38/9K); test: pull-down; H3K9me3 or unmethylated H3(1–16) peptides linked to Dynabeads MyOne streptavidin T1; eluted GST-HP1 in HBS-EP (300 mM NaCl, 10 mM HEPES KOH pH 7.4, 5 mM EDTA, 0.2% NP-40); SDS-PAGE, Coomassie-blue staining; settings: both partners purified
T1 construct: heterochromatin protein 1 gamma (HP1γ), mouse, full length, R38K and R39K (retains the positive charge); source: E. coli, expressed as GST fusion protein (pGEX-2T), purified

[2] = molecular target: T2, GST-HP1γR38/9A (full-length mouse HP1γ with alanine substitutions at amino acids 38 and 39) (mouse, UniProt P23198 1-183, R38/9A | R38/9A); test: as above; settings: both partners purified
T2 construct: heterochromatin protein 1 gamma (HP1γ), mouse, full length, R38A and R39A (designed to mimic citrullination); also called double alanine mutant; source: E. coli, expressed as GST fusion protein (pGEX-2T), purified
T2 sequence (P23198 other isoform, or with tags, fused parts or gaps R38/9A | R38/9A | R38/9A | R38/9A): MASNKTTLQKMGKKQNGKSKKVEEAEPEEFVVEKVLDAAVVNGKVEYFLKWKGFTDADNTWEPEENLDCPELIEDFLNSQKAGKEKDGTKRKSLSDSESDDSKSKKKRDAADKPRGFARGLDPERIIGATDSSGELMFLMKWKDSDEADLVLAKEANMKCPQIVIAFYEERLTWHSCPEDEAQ

T1 sequence (P23198 other isoform, or with tags, fused parts or gaps R38/9K | R38/9K | R38/9K | R38/9K): as the sequence (P23198 other isoform, or with tags, fused parts or gaps R38/9A | R38/9A | R38/9A | R38/9A) above, with A38K, A39K counted along it

B1: H3K9me3(1–16) peptide (peptide)
peptide: ARTKQTARKSTGGKAP
modifications: trimethyl-lysine at K9 (K(me3)); biotin at the C-terminus
notes: histone H3, residues 1-16; also called methylated H3K9me3(1–16) peptides; H3K9me3 peptides
binding result [1]: binds
binding result [2]: binds
